Assay results published in the DeepSol protein solubility set.

Experiment: soluble on expression in E. coli; label from the status in PepcDB or PDB records

Sequence	soluble on expression in E. coli
MGSDKIHHHHHHMLITFNFEVHQPHRLNKEINQNGNTLWEKYVDTKLNKEVFNKVANKCYIPTNELILELIDEYDFKVNYSITGVFVEQALEFNDYVLDLFKDLVKTGNVELIAETYHHSLTSLFETEDEFIEDIEMHRKMYKEIFGFKAKVFRNTELIYNNRIAKIAKDLGFKAIFTEGIEKILGWRSPNYLYQSPDGMKILLRNYRLSDDIGFRFSARDWDQYPLTADKYAIWLASTPGEVINIYMDYETFGEHHWKETGIFEFLRYLPIEIAKHEHLEVVNVSEVVDRLEPRGEIYVHEFATISWADTERDVSAWLGNKMQRISFEKLKDIGKFIKENSNKLKKLNKFDEIYKMYKVLQTSDNLYYQSIKGLSDMSVHNYFSHFDTPFDAYASYLNILYDFEYYIKELLAKSEFDKNNRRKDGQKQYEKDDEVKKESLINTNIIVAKDDKTESIYIEDEEGKKNKRYERDEGFIIA	not soluble
GSHMTSFLHAYFTRLHCQPLGVPTVEALRTLHLAHNCAIPFENLDVLLPREIQLDETALEEKLLYARRGGYCFELNGLFERALRDIGFNVRSLLGRVILSHPASLPPRTHRLLLVDVEDEQWIADVGFGGQTLTAPLRLQAEIAQQTPHGEYRLMQEGSTWILQFRHHEHWQSMYCFDLGVQQQSDHVMGNFWSAHWPQSHFRHHLLMCRHLPDGGKLTLTNFHFTRYHQGHAVEQVNVPDVPSLYQLLQQQFGLGVNDVKHGFTEAELAAVMAAFDTHPEAGK	soluble
GPGSMEQWSACEAATRRVLAVDRTERYPSARRLVRVFISQGRLQEAQQAVSPHRDAIDWAAEVAAVKACTSYTNFYAAHQYSKALESLEVVLSLCPCGTLEAAKARLLSLENAAQAVSYAAQRSRAYATSTELHFCLWSLTFHSVTSVVGLDTLLADMQATPLGRSELRFRHLHTHIARCKEALAKLQVLKTARQWREAATFVTQVLAEPFLPDGLKGVMYYERARALAQQASWYATLDDTHRALSYTEAVSLRANMLLLVARCEEALGRLRDAVYHTEESLGLASNAAAVEQLRSLKARWAHVQASTDAPRTTPRTTSKETPKPNTNANAFSPVSRASLDVHYKTLSLPRSAGAAEVKKSYRALAIKWHPDRWCSASTEAIRTAESTFKTIQHAYEEIMKSAS	not soluble
MSLIFLDYDGTLVPIIMNPEESYADAGLLSLISDLKERFDTYIVTGRSPEEISRFLPLDINMICYHGACSKINGQIVYNNGSDRFLGVFDRIYEDTRSWVSDFPGLRIYRKNLAVLYHLGLMGADMKPKLRSRIEEIARIFGVETYYGKMIIELRVPGVNKGSAIRSVRGERPAIIAGDDATDEAAFEANDDALTIKVGEGETHAKFHVADYIEMRKILKFIEMLGVQKKQEGHHHHHH	soluble
FEKHGTYYEIFVRSFYDSDGDGIGDLKGIIEKLDYLNDGDPETIADLGVNGIWLMPIFKSPSYHGYDVTDYYKINPDYGTLEDFHKLVEAAHQRGIKVIIDLPINHTSERHPWFLKASRDKNSEYRDYYVWAGPDTDTKETKLDGGRVWHYSPTGMYYGYFWSGMPDLNYNNPEVQEKVIGIAKYWLKQGVDGFRLDGAMHIFPPAQYDKNFTWWEKFRQEIEEVKPVYLVGEVWDISETVAPYFKYGFDSTFNFKLAEAVIATAKAGFPFGFNKKAKHIYGVYDREVGFGNYIDAPFLTNHDQNRILDQLGQDRNKARVAASIYLTLPGNPFIYYGEEIGMRGQGPHEVIREPFQWYNGSGEGETYWEPAMYNDGFTSVEQEEKNLDSLLNHYRRLIHFRNENPVFYTGKIEIINGGLNVVAFRRYNDKRDLYVYHNLVNRPVKIKVASGNWTLLFNSGDKEITPVEDNNKLMYTIPAYTTIVLEKE	soluble
MIITTTPTVENRQIIEYKGLVFGEVVAGANIIRDFFASITDMIGGRSGVYEDKLNVARQEALVELQKQARNIGANAVIGVSIQYQSMGKKDMFIIVATGTAVVIGLEHHHHHH	not soluble
MQFLQKFPPFNQMENAHLAYLVEQCQLRFYAADESIIKPGDGPVEHFYIVKQGRIVGERPHSAKRGTETTFEITTGECFPLAALLGERATRTEHLAAEDTFCLQLNKQAFIKLFALSTTFRDFALRGVSSLLDQVNQQVQQRAAETLGTQYSLNTRLGELAMRHPVMCSPDMPMRDAVKLMHEQQVGSIVIVDEQQAPLGIFTLRDLREAVADVNADFSAPVKNTMSPSPFHLSPDASAFDAAIAMTGRHIAHVCLVRDGRLCGVVSERDLFSLQRVDLVHLARTIRNAPRIEALAGLRGDIVQLVDRMLAHGASSTQITQIITLLNDHTVCRVIELTLAEKGDPGVPFSWLCFGSEGRREQTLHTDQDNGILFEASDATEAEQIRTLLLPIAERINQSLAQCGFTLCKGNIMAGNPDLCLSRLEWSRRFSAFIREATPENLLASSIYFDLRVVWGDESGGGQLRRGILDQVADNRLFQRMMAENALRQRPPVGRFKDFVLARKGSEKDTLDLKTEGLTPFVDGARLLALANGIGVNNTQERLRQLVEREVIDPLDGAAYEEAYHFIQQTRMQQHQLQSRQNLAYSNRIDPDTLNHLDRRILRESFRQAQRLQMSLTMRYQL	not soluble
MAIPKLQAYALPESHDIPQNKVDWAFEPQRAALLIHDMQDYFVSFWGENCPMMEQVIANIAALRDYCKQHNIPVYYTAQPKEQSDEDRALLNDMWGPGLTRSPEQQKVVDRLTPDADDTVLVKWRYSAFHRSPLEQMLKESGRNQLIITGVYAHIGCMTTATDAFMRDIKPFMVADALADFSRDEHLMSLKYVAGRSGRVVMTEELLPAPIPASKAALREVILPLLDESDEPFDDDNLIDYGLDSVRMMALAARWRKVHGDIDFVMLAKNPTIDAWWKLLSREVK	not soluble
MGSDKIHHHHHHVTVHGLPAPSADTALYQSIMEAGFTAFPERLANWRRFKAAQRGERLDYLPVKLDVEHVSRCNYRCTMCQVSDWPKMTRAADMTVGDFKSLLEQQIGVVEIKLQGMGEPLLAAESFFEMIRHARERHIWVRATTNGSLLHIKENYKGLVESDICEIQVSIDGARPETYEAIRRGGKFERVAENCRLLNAHAAQDGRERTRMWVVVQQGNLADLDLLPKAAAEMGFKRLTLSLDLTSWGQETWERNNEALDAHDLLPVEKAWALVEEGKRLGVEVTFWAIDSKYDWSDPAKLCPWPFERAYIASDMRVVPCCMIANPDVLDMGDARDLTGVWTGERMAEFRRAHLEGRIPEVCNSCYRDPPAP	not soluble
MGSDKIHHHHHHMQTAARRSFDYDMPLIQTPTSACQIRQAWAKVADTPDRETADRLKDEIKALLKETNAVLVAHYYVDPLIQDLALETGGCVGDSLEMARFGAEHEAGTLVVAGVRFMGESAKILCPEKTVLMPDLEAECSLDLGCPEEAFSAFCDQHPDRTVVVYANTSAAVKARADWVVTSSVALEIVSYLKSRGEKLIWGPDRHLGDYICRETGADMLLWQGSCIVHNEFKGQELAALKAEHPDAVVLVHPESPQSVIELSDVVGSTSKLLKAAVSRPEKKFIVATDLGILHEMQKQAPDKQFIAAPTAGNGGSCKSCAFCPWMAMNSLGGIKYALTSGRNEILLDRKLGEAAKLPLQRMLDFAAGLKRGDVFNGMGPA	not soluble
AIAGIQAEQSPQNYFEGTVSQPSSRFSTTHKGLSGGYNLGLLVKMELQHSFIGKDNGISYLETKLSGFHHLPVIP	soluble
MGSDKIHHHHHHMTIGLSCNALKYGGGLERYAIDLARGLADAGVRPLVFARSFDSSVPEYQCVEPRRINVSFLPGKCRDAWFSWRLRAARRAAPVDVLIGCNRVDSSDIAICGGTHLGFLDAIGRMPTFSDRRQIALERRQYARARFVVAHSMLMRDELRRFYGLSDDKIRVLFPPVDAARFTPVDAVRRAELRTRFGFADDEVVLLFPSSSHERKGLPLIEAILRDAGPRVVVAVAGRPPERTSERLRYVGYVKDIEDGYRAADFTILASKYEPFGLVGVESVMCGTPVILPSNIGCCDAIAPSAKLVFAPGDAAGLRGMLDEAVRRVRAGAVRVESGAAARAAIQYDPSVARHVAQLLDLAAEAASDRRNGGR	not soluble
MSLFPSSEVEAKRTTLNLELESNTDRLLQEKDDLLPQSVTNSSDEGTPFAQVEGASDDNTAEQDSDKPGASVADADTKPVDPEWKTITVASGDTLSTVFTKAGLSTSAMHDMLTSSKDAKRFTHLKVGQEVKLKLDPKGELQALRVKQSELETIGLDKTDKGYSFKREKAQIDLHTAYAHGRITSSLFVAGRNAGLPYNLVTSLSNIFGYDIDFALDLREGDEFDVIYEQHKVNGKQVATGNILAARFVNRGKTYTAVRYTNKQGNTSYYRADGSSMRKAFIRTPVDFARISSRFSLGRRHPILNKIRAHKGVDYAAPIGTPIKATGDGKILEAGRKGGYGNAVVIQHGQRYRTIYGHMSRFAKGIRAGTSVKQGQIIGYVGMTGLATGPHLHYEFQINGRHVDPLSAKLPMADPLGGADRKRFMAQTQPMIARMDQEKKTLLALNKQREGHHHHHH	soluble
MGESLDRCIDDINRAVDSMSTLYFKPPGIFHNAILQGASNKASIRKDITRLIKDCNHDEAYLLFKVNPEKQSVSRRDGKEGVFDYVIKRDTDMKRNRRLGRPGEKPIIHVPKEVYLNKDRLDLNNKRRRTATTSGGGLNGFIFDTDLIGSSVISNSSSGTFKALSAVFKDDPQIQRLLYALENGSVLMEEESNNQRRKTIFVEDFPTDLILKVMAEVTDLWPLTEFKQDYDQLYHNYEQLSSKLRFIKKEVLLQDDRLKTMSQYHPSSSHDVAKIIRKEKDEIRRLEMEIANLQE	not soluble
MSLQPVPDAGPWGDYLCDSPWALINSSIYAMKEIEPEPDFILWTGDDTPHVPDEKLGEAAVLEIVERLTKLIREVFPDTKVYAALGNHDFHPKNQFPAGSNNIYNQIAELWKPWLSNESIALFKKGAFYCEKLPGPSGAGRIVVLNTNLYYTSNALTADMADPGQQFQWLEDVLTDASKAGDMVYIVGHVPPGFFEKTQNKAWFREGFNEKYLKVVRKHHRVIAGQFFGHHHTDSFRMLYDDAGVPISAMFITPGVTPWKTTLPGVVNGANNPAIRVFEYDRATLSLKDMVTYFMNLSQANAQGTPRWELEYQLTEAYGVPDASAHSMHTVLDRIAGDQSTLQRYYVYNSVSEGHHHHHH	soluble
MGHHHHHHSHAELSANQSRIDALEKAGQKLIDVNHYAKDEVAARMNEVISLWKKLLEATELKGIKLREANQQQQFNRNVEDIELWLYEVEGHLASDDYGKDLTNVQNLQKKHALLEADVAAHQDRIDGITIQARQFQDAGHFDAENIKKKQEALVARYEALKEPMVARKQKLADSLRLQQLFRDVEDEETWIREKEPIAASTNRGKDLIGVQNLLKKHQALQAEIAGHEPRIKAVTQKGNAMVEEGHFAAEDVK	soluble
MNDNTHTLPPRHLSVAPMLDWTDRHYRYLARQITRNTWLYSEMVNAGAIVYGDKDRFLMFNEGEQPVALQLGGSDPSDLAKAAKAAEAYGYNEVNLNCGCPSPRVQKGSFGACLMNEVGLVADCLNAMQDAVKIPVTVKHRIGVDRQTEYQTVADFVGTLRDKTACKTFIVHARNAWLDGLSPKENRDVPPLKYDYVYRLKQEFPGLEIIINGGITTNEAIAGHLQHVDGVMVGREAYHNPMVMREWDRLFYGDTRSPIEYADLVQRLYTYSQAQIQAGRGTILRHIVRHSLGLMHGLKGARTWRRMLSDATLLKDNDGSLILEAWKEVERANMRE	not soluble
MSLEEWEKHMQNFIPDMLVTFPLAPRSDEYFYEHIEANDGAVHLRGGFFVGGDEGSASVDFSITDPDGDIIYKKSKSEGLFYFTAKKKGTYSFIVSNHQWLESRMVTFAIGRGNETALMPKHVQTAGEMADTLQNQLRDIQLLLLQQEKENGSSSSVSEEKADATASAASAGGLTDREMKQVIYGACRKVDARNATEIPSCRGIPLTEVHRHWVIEEKERIARMGGTIENGRVNGSLEVTRSFGDISLKRYGVSCVPTVKKFTLDPALDEFVLMGCDGFWNCWTASEALNLASEAWEKEIRSSKVHSRPVDPQNVSKQLVEHVLIDKKSQDNITVLLLKISRKEGHHHHHH	soluble
